Assay results taken from paper PMC7824710.

Assays:
[1] = target: recombinant kinase domain of MKK7 (MKK7-KD), residues 101–405 (UniProt O14733); experiment: other fluorescence titration; tryptophan fluorescence quenching at 334 nm; MKK7-KD at 1.25 µM in phosphate buffer pH 7.5, peptide 10 nM to 140 µM; fit log[inhibitor] vs. response, variable slope
[2] = target: recombinant kinase domain of MKK7 (MKK7-KD), residues 101–405 (UniProt O14733); experiment: other fluorescence titration; FITC fluorescence quenching; FITC-labelled peptide at 10 nM titrated with soluble MKK7-KD 0-1000 nM; 96-well black plates, 200 µL, excitation 488 nm, emission at 517 nm; one-site total fit

UniProt O14733, sequence (O14733 101-405): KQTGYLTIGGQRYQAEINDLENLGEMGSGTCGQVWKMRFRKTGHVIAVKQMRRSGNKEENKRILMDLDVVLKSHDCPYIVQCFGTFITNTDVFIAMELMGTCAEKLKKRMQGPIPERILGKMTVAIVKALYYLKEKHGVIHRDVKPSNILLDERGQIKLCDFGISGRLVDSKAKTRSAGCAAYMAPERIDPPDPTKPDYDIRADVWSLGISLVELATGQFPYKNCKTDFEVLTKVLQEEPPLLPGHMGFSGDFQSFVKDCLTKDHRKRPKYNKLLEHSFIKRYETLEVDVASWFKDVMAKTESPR

| Substance | Kd [1] [µM] | Δ Fluorescence at 334 nm (at concentrations above 10 µM) [1] [units] | Kd [2] [µM] |
| --- | --- | --- | --- |
| scramble (SCRB) peptide (Ac-D-Arg-D-Phe-D-Tyr-NH2) | 41 | 4 | – |
| DTP3 (Ac-D-Tyr-D-Arg-D-Phe-NH2) (peptide) | 0.24 | – | – |
| FITC-βAla2-DTP3 (peptide) | – | – | 0.123 |
